Laboratory results: paper PMC4490372, “Architecture of TFIIIC and its role in RNA polymerase III pre-initiation complex assembly” (Nature Communications, 2015)

T1: Bdp1, full-length, recombinant (UniProt P46678 1-594)
T1 construct: Bdp1, subunit of TFIIIB, full-length; also called untagged Bdp1; source: E. coli BL21 Star (DE3) pRARE, purified (Ni-NTA, TEV cleavage, S200 SEC); not shown: His6, N-terminal, cleaved
T1 sequence (looked up): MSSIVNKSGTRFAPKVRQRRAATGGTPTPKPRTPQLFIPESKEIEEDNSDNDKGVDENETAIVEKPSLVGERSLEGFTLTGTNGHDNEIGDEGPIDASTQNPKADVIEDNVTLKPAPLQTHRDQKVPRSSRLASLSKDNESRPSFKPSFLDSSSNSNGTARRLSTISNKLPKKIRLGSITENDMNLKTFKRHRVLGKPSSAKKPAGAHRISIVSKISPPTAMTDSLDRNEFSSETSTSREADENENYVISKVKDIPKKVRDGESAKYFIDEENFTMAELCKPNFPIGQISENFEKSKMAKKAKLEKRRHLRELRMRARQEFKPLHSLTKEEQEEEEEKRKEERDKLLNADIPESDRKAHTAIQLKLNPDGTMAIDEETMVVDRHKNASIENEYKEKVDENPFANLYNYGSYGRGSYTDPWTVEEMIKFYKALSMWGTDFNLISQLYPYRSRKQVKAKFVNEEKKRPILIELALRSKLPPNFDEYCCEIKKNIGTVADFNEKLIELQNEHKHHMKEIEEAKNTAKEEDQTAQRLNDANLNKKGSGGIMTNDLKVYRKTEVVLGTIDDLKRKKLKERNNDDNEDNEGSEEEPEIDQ

T2: τ91 (Tfc6), τB subunit of endogenous S. cerevisiae TFIIIC (S. cerevisiae, UniProt Q06339 1-672)
T2 construct: τ91 (Tfc6), subunit of S. cerevisiae TFIIIC, endogenous subunit in the purified complex; source: endogenous, purified from S. cerevisiae strain SC2342 as part of TFIIIC (TAP tag on τ60)
T2 sequence (looked up): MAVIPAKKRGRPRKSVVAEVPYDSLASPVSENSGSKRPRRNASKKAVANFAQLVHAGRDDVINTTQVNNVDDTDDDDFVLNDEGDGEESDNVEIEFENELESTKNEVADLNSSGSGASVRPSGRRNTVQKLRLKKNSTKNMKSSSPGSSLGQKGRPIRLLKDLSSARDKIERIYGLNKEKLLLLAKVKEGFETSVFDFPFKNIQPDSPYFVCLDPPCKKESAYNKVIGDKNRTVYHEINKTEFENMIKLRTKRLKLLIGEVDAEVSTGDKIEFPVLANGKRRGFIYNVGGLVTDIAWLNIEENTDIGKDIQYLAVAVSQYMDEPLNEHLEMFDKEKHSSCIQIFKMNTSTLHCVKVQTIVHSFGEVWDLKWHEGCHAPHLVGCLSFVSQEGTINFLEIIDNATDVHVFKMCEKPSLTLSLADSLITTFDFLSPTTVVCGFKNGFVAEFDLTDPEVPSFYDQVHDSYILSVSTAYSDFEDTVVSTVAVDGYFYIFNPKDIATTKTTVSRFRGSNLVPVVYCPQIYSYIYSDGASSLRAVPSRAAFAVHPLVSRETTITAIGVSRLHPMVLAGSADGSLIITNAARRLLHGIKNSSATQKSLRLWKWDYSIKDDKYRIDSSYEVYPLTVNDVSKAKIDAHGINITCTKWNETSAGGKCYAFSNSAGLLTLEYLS


Experiments:
[1] = target: T1, Bdp1, full-length, recombinant; assay: pull-down; 15 μg GST-tagged τ131 on Glutathione Sepharose 4B; 300 nM τ138 or Bdp1, or 1 μM Brf1–TBP; 50 mM Tris pH 7.5, 150 mM NaCl, 2 mM DTT, 0.1% Tween20; 4 °C, 4 h; conditions: both partners purified
[2] = target: T2, τ91 (Tfc6), τB subunit of endogenous S. …; assay: SEC; endogenous TFIIIC purified from yeast by the TAP tag on τ60 (heparin, IgG Sepharose, TEV, MonoQ), then Superose 6 10/300 in 25 mM HEPES pH 7.5, 150 mM NaCl, 1 mM DTT; SDS-PAGE of an elution peak fraction; conditions: partners not purified

binding result [1] | binding result [2] | Binder
binds | – | GST-tagged τ131 (123–566), wild type (domain or fragment, S. cerevisiae, UniProt P33339 123-566, looked up, also called GST-τ131; source: E. coli BL21 (DE3) Gold, purified (GST column, S200 SEC)) VLDPEVAQLLSQANEAFVRNDLQVAERLFNEVIKKDARNFAAYETLGDIYQLQGRLNDCCNSWFLAAHLNASDWEFWKIVAILSADLDHVRQAIYCFSRVISLNPMEWESIYRRSMLYKKTGQLARALDGFQRLYMYNPYDANILRELAILYVDYDRIEDSIELYMKVFNANVERREAILAALENALDSSDEESAAEGEDADEKEPLEQDEDRQMFPDINWKKIDAKYKCIPFDWSSLNILAELFLKLAVSEVDGIKTIKKCARWIQRRESQTFWDHVPDDSEFDNRRFKNSTFDSLLAAEKEKSYNIPIDIRVRLGLLRLNTDNLVEALNHFQCLYDETFSDVADLYFEAATALTRAEKYKEAIDFFTPLLSLEEWRTTDVFKPLARCYKEIESYETAKEFYELAIKSEPDDLDIRVSLAEVYYRLNDPETFKHMLVDVVEMR
– | binds | τ60 (Tfc8), τB subunit of endogenous S. cerevisiae TFIIIC, fused with a C-terminal TAP-tag (natural protein, UniProt Q12308 1-588, looked up, τ60 (Tfc8), subunit of S. cerevisiae TFIIIC, endogenous TFC8 fused with a C-terminal TAP-tag; The complex was captured on IgG Sepharose by the TAP tag and released by TEV protease before MonoQ, Superose 6 and cross-linking; not shown: TAP, C-terminal, kept) MKLLKDLLVDRKEFEDWKNNLTWARDGTLYLTTFPDISIGQPKYAKDINCNSKNLFHVKEFPLEFENKLDFELAQQNGLLNSQPVCYPRVCKPSPIDDWMAVLSNNGNVSVFKDNKMLTNLDSKGNLSSRTYHCFEWNPIESSIVVGNEDGELQFFSIRKNSENTPEFYFESSIRLSDAGSKDWVTHIVWYEDVLVAALSNNSVFSMTVSASSHQPVSRMIQNASRRKITDLKIVDYKVVLTCPGYVHKIDLKNYSISSLKTGSLENFHIIPLNHEKESTILLMSNKTSYKVLLEDELHVTADNIIAPYLEKKFKKWSTIWNEFNNYETTLVIHGISLSPDGYSIAIVYDMERVAFKYKIASEQSFNIMFAPLYHTWTISERAVGLAWYQTYQIYNQSLPKLPENFSMNKKLLNGNYPISLDFQSYLNALMKSEEMRIIMFLNMTIDKPSILSFLEALYEYAINKKSELTNSFDLACVLSIAAILKREAPIYNGTLLMKNSFLEETFNLESFTADPETVTSTTNNTWKRCGVTLLPILTTHVKICPVSKQRVIDIKRDDLNDYGWFTRGLLERFNEISVYCGTTLEVM
binds | – | GST-tagged τ131 (1–580), wild type (domain or fragment, S. cerevisiae, UniProt P33339 1-580, looked up, τ131 (Tfc4) of S. cerevisiae TFIIIC, residues 1-580 (extended N terminus and TPR array); also called GST-τ131 (1–580); longer τ131 protein; source: E. coli BL21 (DE3) Gold, purified (GST column, S200 SEC)) MAAGKLKKEQQNQSAERESADTGKVNDEDEEHLYGNIDDYKHLIQDEEYDDEDVPHDLQLSEDEYNSERDSSLLAEFSDYGEISEDDEEDFMNAIREASNFKVKKKKKNDKGKSYGRQRKERVLDPEVAQLLSQANEAFVRNDLQVAERLFNEVIKKDARNFAAYETLGDIYQLQGRLNDCCNSWFLAAHLNASDWEFWKIVAILSADLDHVRQAIYCFSRVISLNPMEWESIYRRSMLYKKTGQLARALDGFQRLYMYNPYDANILRELAILYVDYDRIEDSIELYMKVFNANVERREAILAALENALDSSDEESAAEGEDADEKEPLEQDEDRQMFPDINWKKIDAKYKCIPFDWSSLNILAELFLKLAVSEVDGIKTIKKCARWIQRRESQTFWDHVPDDSEFDNRRFKNSTFDSLLAAEKEKSYNIPIDIRVRLGLLRLNTDNLVEALNHFQCLYDETFSDVADLYFEAATALTRAEKYKEAIDFFTPLLSLEEWRTTDVFKPLARCYKEIESYETAKEFYELAIKSEPDDLDIRVSLAEVYYRLNDPETFKHMLVDVVEMRKHQVDETLHRISNE
